Test results from patent US20200199241A1 (Chugai, published 2020).

T1: human FcγRIIb (human, UniProt P31994 43-217, limits assumed)
T1 construct: also called hFcgRIIb; FcγIIB
T1 sequence: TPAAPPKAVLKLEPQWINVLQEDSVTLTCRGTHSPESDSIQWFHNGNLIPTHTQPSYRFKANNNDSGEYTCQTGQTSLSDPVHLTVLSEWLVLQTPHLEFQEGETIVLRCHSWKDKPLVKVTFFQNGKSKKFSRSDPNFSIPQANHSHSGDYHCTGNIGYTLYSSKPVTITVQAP

T2: mouse FcγRIII (mouse, UniProt P08508 31-215)
T2 construct: bought; also called mFcgRIII; mFcgR III
T2 sequence (looked up): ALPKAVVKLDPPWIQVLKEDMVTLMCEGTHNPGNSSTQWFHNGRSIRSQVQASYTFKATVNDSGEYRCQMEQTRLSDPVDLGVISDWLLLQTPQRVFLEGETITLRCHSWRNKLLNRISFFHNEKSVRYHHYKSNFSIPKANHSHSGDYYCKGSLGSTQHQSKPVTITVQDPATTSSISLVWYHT

T3: mouse FcγRIV (mouse, UniProt A0A0B4J1G0 21-203)
T3 construct: bought; also called mFcgRIV; mFcgR IV; the vendor's purification tag not given
T3 sequence: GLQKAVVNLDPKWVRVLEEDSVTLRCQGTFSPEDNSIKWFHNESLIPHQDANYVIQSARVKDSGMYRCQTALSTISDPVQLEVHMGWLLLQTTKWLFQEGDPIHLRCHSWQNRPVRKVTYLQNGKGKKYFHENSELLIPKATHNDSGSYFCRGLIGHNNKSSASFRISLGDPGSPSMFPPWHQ

T4: mouse FcγRI (mouse, UniProt P26151 25-297)
T4 construct: bought; also called mFcgRI; mFcgR 1
T4 sequence (looked up): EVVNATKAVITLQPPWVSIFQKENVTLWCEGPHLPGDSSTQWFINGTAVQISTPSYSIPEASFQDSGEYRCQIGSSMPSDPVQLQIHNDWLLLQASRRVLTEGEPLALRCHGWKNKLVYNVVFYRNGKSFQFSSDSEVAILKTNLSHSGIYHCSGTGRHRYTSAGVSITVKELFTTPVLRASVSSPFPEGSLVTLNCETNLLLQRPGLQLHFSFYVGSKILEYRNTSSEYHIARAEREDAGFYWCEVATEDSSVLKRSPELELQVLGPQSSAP

T5: mouse FcγRIIb (mouse, UniProt P08101 30-207, limits assumed)
T5 construct: bought; also called mFcgRIIb; mFcgR IIb
T5 sequence (looked up): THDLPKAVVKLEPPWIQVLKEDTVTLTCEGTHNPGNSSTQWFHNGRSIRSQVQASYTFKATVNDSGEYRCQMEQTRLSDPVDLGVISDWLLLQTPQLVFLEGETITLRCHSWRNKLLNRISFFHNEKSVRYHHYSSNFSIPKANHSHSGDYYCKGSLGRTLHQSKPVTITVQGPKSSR

B1: G237F (antibody)
heavy: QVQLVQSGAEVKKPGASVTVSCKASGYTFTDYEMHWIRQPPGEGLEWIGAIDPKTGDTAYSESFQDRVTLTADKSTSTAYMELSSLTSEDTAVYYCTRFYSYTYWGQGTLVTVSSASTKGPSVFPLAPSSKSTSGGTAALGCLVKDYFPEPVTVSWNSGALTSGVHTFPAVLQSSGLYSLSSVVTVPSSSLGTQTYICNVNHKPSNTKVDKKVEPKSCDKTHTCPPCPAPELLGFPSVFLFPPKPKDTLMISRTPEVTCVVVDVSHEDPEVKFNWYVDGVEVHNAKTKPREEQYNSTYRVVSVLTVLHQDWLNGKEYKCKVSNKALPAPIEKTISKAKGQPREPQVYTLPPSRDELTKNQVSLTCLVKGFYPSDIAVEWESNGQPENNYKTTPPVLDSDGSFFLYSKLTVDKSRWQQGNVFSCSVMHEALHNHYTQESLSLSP
light: DIVMTQSPLSLPVTPGEPASISCQASESLVHSNRNTYLHWYLQKPGQSPQLLIYKVSNRFSGVPDRFSGSGSGTDFTLKISRVEAEDVGVYYCSQNTHVPPTFGQGTKVEIERTVAAPSVFIFPPSDEQLKSGTASVVCLLNNFYPREAKVQWKVDNALQSGNSQESVTEQDSKDSTYSLSSTLTLSKADYEKHKVYACEVTHQGLSSPVTKSFNRGEC
notes: also called GpH7-B3 variant G237F/GpL16-k0; copies: 2 + 2
B2: S239D (antibody)
heavy: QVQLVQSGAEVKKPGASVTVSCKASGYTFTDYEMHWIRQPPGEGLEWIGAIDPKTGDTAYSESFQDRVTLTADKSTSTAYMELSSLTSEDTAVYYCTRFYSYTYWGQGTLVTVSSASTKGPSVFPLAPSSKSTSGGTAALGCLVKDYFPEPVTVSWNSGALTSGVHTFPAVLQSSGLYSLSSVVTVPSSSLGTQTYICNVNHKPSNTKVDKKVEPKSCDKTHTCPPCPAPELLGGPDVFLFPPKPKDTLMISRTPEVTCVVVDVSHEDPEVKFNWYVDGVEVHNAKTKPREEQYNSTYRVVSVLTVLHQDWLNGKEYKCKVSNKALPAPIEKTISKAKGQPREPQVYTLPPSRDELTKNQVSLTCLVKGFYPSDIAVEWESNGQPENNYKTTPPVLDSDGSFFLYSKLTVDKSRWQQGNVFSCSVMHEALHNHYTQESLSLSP
light: DIVMTQSPLSLPVTPGEPASISCQASESLVHSNRNTYLHWYLQKPGQSPQLLIYKVSNRFSGVPDRFSGSGSGTDFTLKISRVEAEDVGVYYCSQNTHVPPTFGQGTKVEIERTVAAPSVFIFPPSDEQLKSGTASVVCLLNNFYPREAKVQWKVDNALQSGNSQESVTEQDSKDSTYSLSSTLTLSKADYEKHKVYACEVTHQGLSSPVTKSFNRGEC
notes: also called GpH7-B3 variant S239D/GpL16-k0; copies: 2 + 2
B3: G237W (antibody)
heavy: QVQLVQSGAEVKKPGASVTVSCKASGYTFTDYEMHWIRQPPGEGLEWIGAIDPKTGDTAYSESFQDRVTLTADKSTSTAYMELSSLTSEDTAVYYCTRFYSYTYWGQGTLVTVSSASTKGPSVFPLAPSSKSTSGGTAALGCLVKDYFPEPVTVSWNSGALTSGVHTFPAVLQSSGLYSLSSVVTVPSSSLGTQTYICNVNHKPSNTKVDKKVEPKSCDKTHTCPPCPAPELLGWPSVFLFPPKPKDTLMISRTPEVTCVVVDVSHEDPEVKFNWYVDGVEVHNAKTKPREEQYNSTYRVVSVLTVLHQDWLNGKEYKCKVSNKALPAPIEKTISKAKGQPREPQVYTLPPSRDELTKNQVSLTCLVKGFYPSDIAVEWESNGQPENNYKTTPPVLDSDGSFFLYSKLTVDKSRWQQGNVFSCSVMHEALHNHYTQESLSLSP
light: DIVMTQSPLSLPVTPGEPASISCQASESLVHSNRNTYLHWYLQKPGQSPQLLIYKVSNRFSGVPDRFSGSGSGTDFTLKISRVEAEDVGVYYCSQNTHVPPTFGQGTKVEIERTVAAPSVFIFPPSDEQLKSGTASVVCLLNNFYPREAKVQWKVDNALQSGNSQESVTEQDSKDSTYSLSSTLTLSKADYEKHKVYACEVTHQGLSSPVTKSFNRGEC
notes: also called GpH7-B3 variant G237W/GpL16-k0; copies: 2 + 2
B4: L234Y (antibody)
heavy: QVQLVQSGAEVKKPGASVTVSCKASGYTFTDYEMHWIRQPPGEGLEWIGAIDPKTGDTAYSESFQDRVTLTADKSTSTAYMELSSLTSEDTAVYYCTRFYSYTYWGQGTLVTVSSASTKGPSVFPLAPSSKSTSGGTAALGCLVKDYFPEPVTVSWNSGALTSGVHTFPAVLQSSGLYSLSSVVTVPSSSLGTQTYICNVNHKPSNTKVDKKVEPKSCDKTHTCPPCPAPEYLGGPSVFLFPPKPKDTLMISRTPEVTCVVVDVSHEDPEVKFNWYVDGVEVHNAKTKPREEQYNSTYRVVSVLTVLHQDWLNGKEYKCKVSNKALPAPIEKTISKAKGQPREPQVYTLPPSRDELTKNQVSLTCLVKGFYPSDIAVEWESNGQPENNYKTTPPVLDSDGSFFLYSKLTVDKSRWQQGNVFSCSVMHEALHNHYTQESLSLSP
light: DIVMTQSPLSLPVTPGEPASISCQASESLVHSNRNTYLHWYLQKPGQSPQLLIYKVSNRFSGVPDRFSGSGSGTDFTLKISRVEAEDVGVYYCSQNTHVPPTFGQGTKVEIERTVAAPSVFIFPPSDEQLKSGTASVVCLLNNFYPREAKVQWKVDNALQSGNSQESVTEQDSKDSTYSLSSTLTLSKADYEKHKVYACEVTHQGLSSPVTKSFNRGEC
notes: also called GpH7-B3 variant L234Y/GpL16-k0; copies: 2 + 2
B5: antibody with mPM1H-mIgG1 heavy chain and L(WT)-CK light chain (antibody)
heavy: DVQLQESGPVLVKPSQSLSLTCTVTGYSITSDHAWSWIRQFPGNKLEWMGYISYSGITTYNPSLKSRISITRDTSKNQFFLQLNSVTTGDTSTYYCARSLARTTAMDYWGQGTSVTVSSAKTTPPSVYPLAPGSAAQTNSMVTLGCLVKGYFPEPVTVTWNSGSLSSGVHTFPAVLQSDLYTLSSSVTVPSSTWPSETVTCNVAHPASSTKVDKKIVPRDCGCKPCICTVPEVSSVFIFPPKPKDVLTITLTPKVTCVVVDISKDDPEVQFSWFVDDVEVHTAQTQPREEQFNSTFRSVSELPIMHQDWLNGKEFKCRVNSAAFPAPIEKTISKTKGRPKAPQVYTIPPPKEQMAKDKVSLTCMITDFFPEDITVEWQWNGQPAENYKNTQPIMDTDGSYFVYSKLNVQKSNWEAGNTFTCSVLHEGLHNHHTEKSLSHSPGK
light: not shown
notes: mouse IgG1 heavy chain with natural mouse Fc region; also called mPM1-mIgG1; copies: 2 + 2
B6: antibody with mPM1H-mIgG1-mF38 heavy chain (antibody)
heavy: DVQLQESGPVLVKPSQSLSLTCTVTGYSITSDHAWSWIRQFPGNKLEWMGYISYSGITTYNPSLKSRISITRDTSKNQFFLQLNSVTTGDTSTYYCARSLARTTAMDYWGQGTSVTVSSAKTTPPSVYPLAPGSAAQTNSMVTLGCLVKGYFPEPVTVTWNSGSLSSGVHTFPAVLQSDLYTLSSSVTVPSSTWPSETVTCNVAHPASSTKVDKKIVPRDCGCKPCICTVPEVSSVFIFPPKPKDVLYITLEPKVTCVVVDISKDDPEVQFSWFVDDVEVHTAQTQPREEQFNSTFRSVSELPIMHQDWLNGKEFKCRVNSAAFPAPIEKTISKTKGRPKAPQVYTIPPPKEQMAKDKVSLTCMITDFFPEDITVEWQWNGQPAENYKNTQPIMDTDGSYFVYSKLNVQKSNWEAGNTFTCSVLHEGLHWHHTEKSLSHSPGK
light: not shown
notes: T252Y/T256E/N434W; also called mPM1-mIgG1-mF38; copies: 2 + 2
B7: antibody with mPM1H-mIgG1-mF40 heavy chain (antibody)
heavy: DVQLQESGPVLVKPSQSLSLTCTVTGYSITSDHAWSWIRQFPGNKLEWMGYISYSGITTYNPSLKSRISITRDTSKNQFFLQLNSVTTGDTSTYYCARSLARTTAMDYWGQGTSVTVSSAKTTPPSVYPLAPGSAAQTNSMVTLGCLVKGYFPEPVTVTWNSGSLSSGVHTFPAVLQSDLYTLSSSVTVPSSTWPSETVTCNVAHPASSTKVDKKIVPRDCGCKPCICTVKEVSKVFIFPPKPKDVLYITLEPKVTCVVVDISKDDPEVQFSWFVDDVEVHTAQTQPREEQFNSTFRSVSELPIMHQDWLNGKEFKCRVNSAAFPAPIEKTISKTKGRPKAPQVYTIPPPKEQMAKDKVSLTCMITDFFPEDITVEWQWNGQPAENYKNTQPIMDTDGSYFVYSKLNVQKSNWEAGNTFTCSVLHEGLHWHHTEKSLSHSPGK
light: not shown
notes: P235K/S239K/T252Y/T256E/N434W; also called mPM1-mIgG1-mF40; copies: 2 + 2
B8: antibody with mPM1H-mIgG1-mF39 heavy chain (antibody)
heavy: DVQLQESGPVLVKPSQSLSLTCTVTGYSITSDHAWSWIRQFPGNKLEWMGYISYSGITTYNPSLKSRISITRDTSKNQFFLQLNSVTTGDTSTYYCARSLARTTAMDYWGQGTSVTVSSAKTTPPSVYPLAPGSAAQTNSMVTLGCLVKGYFPEPVTVTWNSGSLSSGVHTFPAVLQSDLYTLSSSVTVPSSTWPSETVTCNVAHPASSTKVDKKIVPRDCGCKPCICTVKEVSKVFIFPPKPKDVLYITLEPKVTCVVVDISKDDPEVQFSWFVDDVEVHTAQTQPREEQFNSTFRSVSELPIMHQDWLNGKEFKCRVNSAAFPAPIEKTISKTKGRPKAPQVYTIPPPKEQMAKDKVSLTCMITDFFPEDITVEWQWNGQPAENYKNTQPIMDTDGSYFVYSKLNVQKSNWEAGNTFTCSVLHEGLKNHHTEKSLSHSPGK
light: not shown
notes: P235K/S239K/T252Y/T256E/H433K; also called mPM1-mIgG1-mF39; copies: 2 + 2
B9: antibody with mPM1H-mIgG1-mF14 heavy chain (antibody)
heavy: DVQLQESGPVLVKPSQSLSLTCTVTGYSITSDHAWSWIRQFPGNKLEWMGYISYSGITTYNPSLKSRISITRDTSKNQFFLQLNSVTTGDTSTYYCARSLARTTAMDYWGQGTSVTVSSAKTTPPSVYPLAPGSAAQTNSMVTLGCLVKGYFPEPVTVTWNSGSLSSGVHTFPAVLQSDLYTLSSSVTVPSSTWPSETVTCNVAHPASSTKVDKKIVPRDCGCKPCICTVPEVSSVFIFPPKPKDVLYITLEPKVTCVVVDISKDDPEVQFSWFVDDVEVHTAQTQPREEQFNSTFRSVSELPIMHQDWLNGKEFKCRVNSAAFPAPIEKTISKTKGRPKAPQVYTIPPPKEQMAKDKVSLTCMITDFFPEDITVEWQWNGQPAENYKNTQPIMDTDGSYFVYSKLNVQKSNWEAGNTFTCSVLHEGLKNHHTEKSLSHSPGK
light: not shown
notes: T252Y/T256E/H433K; also called mPM1-mIgG1-mF14; copies: 2 + 2

Assays:
human FcγRIIb = biological target: T1, human FcγRIIb; test: SPR (Biacore), amount of FcγRIIb bound to the captured antibody, relative to GpH7-B3/GpL16-k0 = 100
mouse FcγRIII = biological target: T2, mouse FcγRIII; test: SPR, antibody captured by Protein L, mouse FcγR as analyte, pH 7.4, 25 C
Procedure: (§1) Binding activity between the antibodies and mouse FcγRI, FcγRII, FcγRIII and FcγRIV (R&D Systems, Sino Biological) (hereinafter referred to as mouse FcγRs) was evaluated using the BIACORE™ T100 or T200 surface plasmon resonance system (GE Healthcare). The antibodies being tested were captured by Protein L (ACTIGEN® protein (Alltech)) that was immobilized in suitable amounts on the CM4 Sensor Chip (GE Healthcare) by amine coupling. Next, the diluted mouse FcγRs and a running buffer used as a blank were injected to allow interaction with the antibody captured on the sensor chip. A buffer consisting of 20 mmol/L N-(2-acetamido)-2-aminoethanesulfonic acid (ACES), 150 mmol/L NaCl and 0.05% (w/v) polysorbate 20 (Tween 20®) (pH 7.4) was used for the running buffer, and this buffer was also used to dilute the mouse FcγRs. 10 mmol/L glycine-HCl (pH 1.5) was used to regenerate the sensor chip. All measurements were carried out at 25° C.
(§2) Binding activity to mouse FcγRs can be represented by the relative binding activity to mouse FcγRs. Antibody was captured by Protein L, and the amount of change in a sensorgram before and after the antibody was captured was defined as X1. Next, mouse FcγRs were allowed to interact with the antibody, and the value obtained by subtracting binding activity of mouse FcγRs represented as the amount of change in a sensorgram before and after allowing the running buffer to interact with antibody captured by Protein L (AA2) from the value obtained by multiplying by 1500 the value obtained by dividing the binding activity of mouse FcγRs represented as the amount of change in a sensorgram before and after that interaction (AA1) by the captured amount (X) of each antibody, was divided by the captured amount of each antibody (X) followed by multiplying by 1500 to obtain the binding activity of the mouse FcγRs (Y) (Equation 1).

mouse FcγRIV = biological target: T3, mouse FcγRIV; test: as above
Procedure: as §1, §2

mouse FcγRI = biological target: T4, mouse FcγRI; test: as above
Procedure: as §1, §2

mouse FcγRIIb = biological target: T5, mouse FcγRIIb; test: as above
Procedure: as §1, §2

binding result (human FcγRIIb) | BINDING AMOUNT (RU) (mouse FcγRIII) | BINDING AMOUNT (RU) (mouse FcγRIV) | BINDING AMOUNT (RU) (mouse FcγRI) | BINDING AMOUNT (RU) (mouse FcγRIIb) | Binder
binds | – | – | – | – | B1
binds | – | – | – | – | B2
binds | – | – | – | – | B3
binds | – | – | – | – | B4
– | 450 RU | -3.5 RU | -2 RU | 202 RU | B5
– | 403 RU | -4.1 RU | -2 RU | 161 RU | B6
– | -18.7 RU | -8.9 RU | -3 RU | -5.2 RU | B7
– | -8.4 RU | -3.8 RU | -3.1 RU | -3 RU | B8
– | 447 RU | -8 RU | -3.7 RU | 184 RU | B9
